Molecular target: the molecule itself
Test: crystal structure

B1: human liver pyruvate kinase (L-PYK) with the S12D mimic of phosphorylation (enzyme)
chain: not shown
modifications: Cys436 partially oxidized to the sulfenic derivative (sulfenic acid)
With B1 the “stoichiometry N” value was 4.

— publication PMC3572911 (Biochemistry, 2013)
